Values of other authors as cited in article PMC3652491.

Target: Nef peptide 12-residue peptide (Human immunodeficiency virus 1) (UniProt P04324)

Substance: Hck SH3 (from UniProt P08631)
- Kd: 90 µM
